Test results from US20230212319A1, “NOVEL ANTIGEN BINDING DOMAINS AND SYNTHETIC ANTIGEN RECEPTORS INCORPORATING THE SAME” (University of Southern California, priority 2020, published 2023).
Entries after “also recorded” stand apart in the source; their conditions may differ.

Legend:
Huh-7 cells = test: JNG NFAT-GFP induction on co-culture with Huh-7
KMH2 (PSMA-low) cells = test: JNG NFAT-GFP induction on co-culture with KMH2

Row | Molecule | NFAT-GFP ASSAY: Huh-7 (Huh-7 cells) | NFAT-GFP ASSAY: KMH2 (KMH2 (PSMA-low) cells)
1 | 21884 (protein) MALPVTALLLPLALLLHAARPDIQMTQSPSSLSASVGDRVTITCKASQDVGTAVDWYQQKPGKAPKLLIYWASTRHTGVPSRFSGSGSGTDFTLTISSLQPEDFATYYCQQYNSYPLTFGQGTKVEIKRLETIFLPSIAETKLQKAGTYLCLLEKFFPDVIKIHWQEKKSNTILGSQEGNTMKTNDTYMKFSWLTVPEKSLDKEHRCIVRHENNKNGVDQEIIFPPIKTDVITMDPKDNCSKDANDTLLLQLTNTSAYYMYLLLLLKSVVYFAIITCCLLRRTAFCCNGEKSRAKRSGSGATNFSLLKQAGDVEENPGPTSMDWIWRILFLVGAATGAHSFEVQLVESGGGLVQPGGSLRLSCAASGYTFTEYTIHWVRQAPGKGLEWVANINPNNGGTTYNQKFEDRFTISRDNSKNTLYLQMNSLRAEDTAVYYCARGWNFDYWGQGTLVTVSSTRPHTKPSVFVMKNGTNVACLVKEFYPKDIRINLVSSKKITEFDPAIVISPSGKYNAVKLGKYEDSNSVTCSVQHDNKTVHSTDFEVKTDSTDHVKPKETENTKQPSKSCHKPKAIVHTEKVNMMSLTVLGLRMLFAKTVAVNFLLTAKLFFLRAKRSGSGVKQTLNFDLLKLAGDVESNPGPSRGHMTEYKPTVRLATRDDVPRAVRTLAAAFADYPATRHTVDPDRHIERVTELQELFLTRVGLDIGKVWVADDGAAVAVWTTPESVEAGAVFAEIGPRMAELSGSRLAAQQQMEGLLAPHRPKEPAWFLATVGVSPDHQGKGLGSAVVLPGVEAAERAGVPAFLETSAPRNLPFYERLGFTVTADVEVPEGPRTWCMTRKPGA | negligible GFP induction | negligible GFP induction
2 | 21886 (protein) MALPVTALLLPLALLLHAARPDIQMTQSPSSLSASVGDRVTITCKASQDVGTAVDWYQQKPGKAPKLLIYWASTRHTGVPSRFSGSGSGTDFTLTISSLQPEDFATYYCQQYNSYPLTFGQGTKVEIKRLEAEISHTQKATLVCLATGFYPDHVELSWWVNGKEVHSGVCTDPQPLKEQPALNDSRYCLSSRLRVSATFWQNPRNHFRCQVQFYGLSENDEWTQDRAKPVTQIVSAEAWGRADCGFTSESYQQGVLSATILYEILLGKATLYAVLVSALVLMAMVKRKDSRGRAKRSGSGATNFSLLKQAGDVEENPGPTSMDWIWRILFLVGAATGAHSFEVQLVESGGGLVQPGGSLRLSCAASGYTFTEYTIHWVRQAPGKGLEWVANINPNNGGTTYNQKFEDRFTISRDNSKNTLYLQMNSLRAEDTAVYYCARGWNFDYWGQGTLVTVSSTRDKSVCLFTDFDSQTNVSQSKDSDVYITDKCVLDMRSMDFKSNSAVAWSNKSDFACANAFNNSIIPEDTFFPSPESSCDVKLVEKSFETDTNLNFQNLSVIGFRILLLKVAGFNLLMTLRLWSSRAKRSGSGVKQTLNFDLLKLAGDVESNPGPSRGHMTEYKPTVRLATRDDVPRAVRTLAAAFADYPATRHTVDPDRHIERVTELQELFLTRVGLDIGKVWVADDGAAVAVWTTPESVEAGAVFAEIGPRMAELSGSRLAAQQQMEGLLAPHRPKEPAWFLATVGVSPDHQGKGLGSAVVLPGVEAAERAGVPAFLETSAPRNLPFYERLGFTVTADVEVPEGPRTWCMTRKPGA | negligible GFP induction; also recorded: negligible activity | negligible GFP induction; also recorded: negligible activity
